According to US8598081B2, “Specific delivery of agrochemicals” (priority 2010, dated 2013):

T1: potato lectin (Solanum tuberosum, UniProt Q9S8M0)
T1 construct: purchased Sigma
T1 sequence (Q9S8M0 whole entry, looked up): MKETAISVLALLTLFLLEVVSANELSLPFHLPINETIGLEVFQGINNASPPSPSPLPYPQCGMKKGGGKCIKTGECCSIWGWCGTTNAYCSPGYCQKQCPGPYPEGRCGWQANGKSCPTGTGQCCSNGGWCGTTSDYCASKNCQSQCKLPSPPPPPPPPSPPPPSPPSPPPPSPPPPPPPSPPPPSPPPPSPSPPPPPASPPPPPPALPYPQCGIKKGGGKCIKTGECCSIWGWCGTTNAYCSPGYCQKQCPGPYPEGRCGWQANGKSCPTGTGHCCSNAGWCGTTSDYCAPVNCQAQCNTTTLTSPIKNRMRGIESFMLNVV

B1: VHH 3E6: VHH binding gum arabic, potato lectin and leaf surface; SEQ ID NO:7 by order of the list (protein, listed as Lama glama)
VHH: QVQLQESGGGLVQPGGTLSLSCAASGFNVRWYGMGWFRQAPGKEREGVACISALQETTAYADSVKGRFTLSRDNPKNTLSLQMNNLQPEDTGVYYCATTDCDDSSRMTYTSYLGQGTQVTVSS
modifications: 3E6
B2: Microcapsules containing uvitex OB VHH 3E6: polyurea microcapsules containing the fluorescent tracer Uvitex OB, coupled with (monovalent) VHH 3E6 (conjugate)
VHH: QVQLQESGGGLVQPGGTLSLSCAASGFNVRWYGMGWFRQAPGKEREGVACISALQETTAYADSVKGRFTLSRDNPKNTLSLQMNNLQPEDTGVYYCATTDCDDSSRMTYTSYLGQGTQVTVSS
modifications: left off: small tags and cut ends
notes: polyurea microcapsules containing the fluorescent tracer Uvitex OB, coupled with (monovalent) VHH 3E6

Key:
[1] = tested on: leaf surface of potato leaves; assay: VHH binding to non-fixed leaf discs, potato; design: species or system potato (variety Desiree); conditions: 5 μg/ml, detection with anti-histidine Alexa-488
Protocol: VHH binding to non-fixed leaf discs of potato (variety Desiree), black nightshade, grass, wheat or azalea was investigated. For comparison, binding of CBM3a to non-fixed leaf discs of potato (variety Desiree) was analyzed in parallel. Leaf discs were prepared by punching a fresh potato leaf with a 5 mm belt hole puncher tool. Leaf discs were put immediately in wells of a 96-well plate containing 200 μl per well 5% MPBS or PBS, and incubated for 30 minutes. Leaf discs were transferred to solutions containing 5 μg/ml VHH antibody fragment, respectively, 5 μg/ml CBM3a in 2% MPBS or PBS and incubated for 60-90 minutes. Unbound VHH or CBM3a proteins were removed by washing three times with 2% MPBS or PBS. Bound VHH or CBM3a proteins were detected with incubation with monoclonal mouse anti-histidine antibodies directly conjugated with Alexa-488 fluorescent dye (Abd Serotec) in 1% MPBS for 1 hour. Unbound antibodies were removed by washing three times with PBS. Leaf discs were put on glass slides, covered with cover slips, and analyzed by microscopy or on a macrozoom microscope system (Nikon) or a SP5 confocal microscope system (Leica).

potato lectin = molecular target: T1, potato lectin; assay: ELISA-like assay of VHH-coupled microcapsules, potato lectin-coated wells; assay type: binding; design: Area of bound microcapsules: unit not given beside the values; conditions: for Area of bound microcapsules: uvitex OB microcapsules
Protocol: Polyurea microcapsules were produced by interfacial polymerization. With the objective to generate functionalized polyurea microcapsules, VHH were coupled to microcapsules containing either the insecticide lambda cyhalothrin or the fluorescent tracer molecule Uvitex OB and a shell with incorporated lysine to surface-expose carboxylic acid residues. Lambda cyhalothrin was dissolved in benzyl benzoate in concentrations between 30% and 66% before encapsulation. Alternatively, a core of 1.5% Uvitex in benzyl benzoate was used for easy fluorescent visualization of microcapsules. Toluene diisocyanate (TDI) and polymethylenepolyphenylene isocyanate (PMPPI) were dissolved in the oil phase in different ratios and concentrations in the oil phase to produce desired shell characteristics. Stirring speed for the emulsion was varied to control droplet size and consequently microcapsule diameter. Microcapsules with approximate diameters of 5 μm, 10 μm, or 50 μm were successfully produced. Bifunctional lysine and trifunctional diethylene triamine (DETA) were used in different ratios and/or added sequentially during encapsulation to on the one hand maximize amounts of carboxylic acids on the microcapsules' surface and on the other hand obtain sufficient strength of capsule shells. Microcapsules were washed with water after production and stored as microcapsule suspensions in water. The microcapsules were washed with 100 mM MES, 500 mM NaCl, pH 6.0 immediately before coupling of VHH using a vacuum-tight filter flask and P 1.6 filter funnel (Duran). Alternatively, glass filter holders with 0.45 μm disposable membrane filters (Millipore) or 0.45 μm 96-well deep-well filtration plates (Millipore) were used. Couplings of VHH to microcapsules were performed using carbodiimide-mediated couplings using a one-step procedure, a two-step procedure without N-hydroxysuccinimide (NHS), or a two-step procedure with NHS. The major difference between one-step coupling and two-step coupling procedures is the occurrence of cross-linking of VHH in one-step coupling procedures. The protocols for the three procedures are largely similar and differ as follows. For one-step couplings VHH were added to washed microcapsules and 1-Ethyl-3-[3-dimethylaminopropyl]carbodiimide Hydrochloride (EDC) (Pierce) was added and coupling reaction was allowed for 2 hours at room temperature. For two-step couplings washed microcapsules were first activated with EDC in the presence or absence of NHS. Excess unreacted EDC (and NHS) were removed by quick sequential washes with ice-cold buffers and VHH were added and allowed to react with activated carboxylic acids on microcapsule shells. For ø 10 μm microcapsules 2-20 μg VHH were coupled per mg microcapsules. For microcapsules with other diameters amounts were scaled accordingly. After coupling of VHH the microcapsules were washed with PBS and stored in PBS. Success of coupling of VHH was investigated using a combination of analyzing coupling efficiency by SDS-PAGE and analyzing bound hexahistidine-tagged VHH by microscopy or a SP5 confocal microscope system (Leica) using anti-histidine antibodies directly conjugated with Alexa-488 fluorescent dye. […] VHH-coupled microcapsules were labeled with anti-histidine antibodies for 1 hour at room temperature. Unbound anti-histidine antibodies were removed by washing five times with PBS using 0.45 μm 96-well deep-well filtration plates (Millipore). […]

potato leaf discs = assay: Leaf disc binding assay with VHH-coupled microcapsules, potato; design: species or system potato (variety Desiree)
Protocol: A leaf disc binding assay was used to evaluate the interaction of VHH-coupled microcapsules with potato, grass and azalea leaves. ø 8 mm leaf discs were sampled from the leaves of potato pot plants (variety Desiree), from the leaves of greenhouse-grown Lollium perenne and from the leaves of azalea pot plants. Leaf discs were washed three times with PBS. Microcapsules containing lambda cyhalothrin or Uvitex were diluted to appropriate densities in 1% skimmed milk in PBS with 0.05%-TWEEN®-20. Microcapsules were added to the leaf discs and settling of microcapsules and binding of targeting agents allowed for 1 hour. Unbound microcapsules were removed by washing three to five times with PBS with 0.05%-TWEEN®-20.
For lambda cyhalothrin microcapsules, a residue analysis was performed to measure lambda cyhalothrin amounts on potato leaf discs. Washed leaf discs with bound microcapsules were transferred to glass vials and microcapsules were dissolved in acetone. Samples were diluted by addition of hexane containing 0.05% triphenylphosphate as internal standard. The amount of lambda cyhalothrin was determined by GC/MS-MS analysis in comparison with calibration solutions. Controls for lambda cyhalothrin microcapsules included blank microcapsules to which no VHH were coupled and microcapsules to which unrelated VHH were coupled.
Leaf discs with Uvitex microcapsules were analyzed for bound microcapsules on a macrozoom microscope system (Nikon). Microcapsules were counted using Volocity image analysis software (Perkin Elmer). A DAPI filter was used to visualize Uvitex microcapsules. Controls for Uvitex microcapsules included blank microcapsules to which no VHH were coupled and microcapsules to which unrelated VHH were coupled.

[2] = potato leaf discs, Uvitex microcapsules, FIG. 4

Molecule | binding to native potato leaf surface (fluorescence microscopy) [1] | binding to native potato leaf surface (fluorescence microscopy) ([1]; listed as 3E6) | binding and retaining microcapsules to antigen-coated surface when VHH is coupled to a microcapsule (potato lectin; microcapsule binding assays, resists washing shear forces) | binding and retaining microcapsules to leaf surfaces (potato leaf discs; VHH coupled to Uvitex microcapsules, leaf disc binding assay) | Area of bound microcapsules (potato lectin; no coating (first series, with potato lectin rows), surface coverage 100%) | Area of bound microcapsules (potato lectin; potato lectin, surface coverage 4%) | Area of bound microcapsules (potato lectin; potato lectin, surface coverage 20%) | Area of bound microcapsules (potato lectin; potato lectin, surface coverage 100%) | more microcapsules bound to leaf surfaces compared to blank microcapsules (potato leaf discs; [2]) | more microcapsules bound to leaf surfaces compared to microcapsules coupled with unrelated VHH (potato leaf discs; [2])
B1 | binding leaf surface, stomata, glandular trichomes, and leaf hairs | clearly binding to trichomes, stomata and cuticle | capable of binding specifically to antigen-coated surfaces | capable of binding and retaining microcapsules specifically to leaf surfaces | – | – | – | – | – | –
B2 | – | – | – | – | 86.574 | 144.955 | 510.242 | 504.839 | nine-fold | six-fold
